In assay [1] the target is T1, thrombin (Homo sapiens, UniProt P00734). The following applies: sulfated versus unsulfated hirudin; cited from earlier work.
Assay [2] deals with T1, thrombin. As to the kind of experiment: chromogenic thrombin amidolytic activity assay. Format: biochemical. As to conditions: tight-binding model, Morrison equation; inhibitors expressed in E. coli, sulfotyrosine biosynthesized; read-out: Ki, inhibition of thrombin activity. As for the experimental part:
FIG. 18: Inhibition constants (Ki) of all thrombin inhibitors used in this study: Ki+standard error were calculated based on a tight-binding model, using Morrison equation in Prism. Standard errors were calculated from n=3 independent samples.
To test the thrombin inhibiting activity of the wild type inhibitors and their sulfotyrosine-containing mutants, chromogenic thrombin amidolytic activity assays were performed in the presence of a range of concentrations of each inhibitor. […] Double sulfation of chimadanin at both Tyr28 and Tyr31 further improved its Ki to 0.1 nM, consistent with the madanin-1 study. […] This may be due to the fact that co-translational folding is more efficient than that achieved via chemical synthesis.

In assay [3] the test system is tyrosine sulfation (sulfotyrosine-containing sfGFP production). As to the kind of experiment: green fluorescent protein assay of tyrosine sulfotransferase activity. Format: cell-based, Escherichia coli. As to conditions: BL21(DE3), pBad vector, sfGFP134TAG reporter, LB medium.
Description: To explore the activity of these sulfotransferases towards tyrosine, a green fluorescent protein assay was used (Chen et al., 2018; Chen et al., 2019). […] The suppressor plasmid (pUltra-sulfotyrosine) was used to suppress the amber codon (Asp134TAG) within a sfGFP variant encoded by the pLei-sfGFP134TAG plasmid in the presence of sulfotyrosine. Expression of full-length sfGFP was carried out in LB medium for 16 hours in parallel with controls BL21(DE3) harboring pUltra-sulfotyrosine, pLei-sfGFP134TAG and pBad-Empty in the presence and absence of exogenously fed 1 mM sulfotyrosine.

*: point of attachment. sulfate = O=S(=O)(O)*

B1: hirudin: thrombin inhibitor; tyrosine-sulfated form compared with unsulfated; SEQ ID NO: 109 in Table 1 (protein, listed as Hirudo medicinalis)
chain: MKKNIAFLLASMFVFSIATNAYAMRYTACTESGQNQCICEGNDVCGQGRNCQFDSSGKKCVEGEGTRKPQNEGQHDFDPIPEEYLSHHHHHH
modifications: tyrosine sulfation
B1: the “increase of affinity for thrombin by tyrosine sulfation” value in the assay with thrombin [1] is recorded as “more than 10 fold”.

B2: Madanin-1 sulfated at both Tyr32 and Tyr35 (protein)
chain: MYPERDSAKEGNQEQERALHVKVQKRTDGDADY(sulfate)DEY(sulfate)EEDGTTPTPDPTAPTAKPRLRGNKPHHHHHH
B2: in the assay with thrombin [2], the inhibition constant (Ki) – broadly, a dissociation constant, usually derived from enzyme kinetics or from competition with a known ligand – worked out at 0.5 nM.

B3: wildtype chimadanin: thrombin inhibitor from the salivary gland of Haemaphysalis longicornis, His-tagged, expressed in E. coli; Table 1 sequence names seem swapped (protein)
chain: MQPKEKTKGVEVEGNPATLISARQMDVSYDEYEDNGPDVIPGEPAKPRGGPKNGAASGKFDQIPDFSSESHHHHHHH
As to B3, the inhibition constant (Ki) in the assay with thrombin [2] is 12.9 nM.

B4: A0A091VQH7: putative sulfotransferase from Nipponia nippon, SEQ ID NO: 1 (protein)
chain: IALDKMEDLSLKETVVSRAEICEVEGIPFTKPICSTWDQVWKFKARPDDLLIATYTKAGTTWTQEIVDMIQQNGDVEKCRRATTYRRHPFLEWSIQEPPAASYSGLELAEAMPSPRTIKTHLPVQLLPPSFWEQNCKIIYVARNAKDNLVSYYHFHRMSKEMPDPGTWEEFMEKFMTGKVLWGSWYDHVKGWWKAKDRHRILYLFYEDMKENPKQEIQKILKFLEKDVNQEVLNKILHNTSFEIMKDNPMTNYTTEFQGIMDHSISPFMRKGVVGDWKNYFTVAQNEKFDEDYKKKMADTSLVFRTEL
modifications: Nipponia nippon
On to B4, for which, in assay [3], the “increase in fluorescence compared to cells not given exogenous sulfotyrosine” value worked out at 2.5 fold.

Values taken from patent publication US20240344040A1, “PROKARYOTIC AND EUKARYOTIC CELLS WITH BIOSYNTHESIZED SULFOTYROSINE FOR GENETIC INCORPORATION” (William Marsh Rice University, priority 2023, published 2024).
